{"source": "patent US20260266833A1", "binders": {"B1": {"name": "Cbx7.V1 chromodomain, His6- and Flag-tagged (designed binder, not shown: small tags and cut ends)", "chain": "SAIGDDIFAVESIRKKRVRKGKVEYLVKWEGWPLEYSTWEPEEHILDPRLVMAYEEKEERDRASGYRKRGPK"}, "B2": {"name": "Cbx7.V1 back-mutant D8E, His6- and Flag-tagged (designed binder, not shown: small tags and cut ends)", "chain": "B1 chain with D5E"}, "B3": {"name": "Cbx7.V1 back-mutant I10V, His6- and Flag-tagged (designed binder, not shown: small tags and cut ends)", "chain": "B1 chain with I7V"}, "B4": {"name": "Cbx7.V1 back-mutant E33K, His6- and Flag-tagged (designed binder, not shown: small tags and cut ends)", "chain": "B1 chain with E30K"}, "B5": {"name": "Cbx7.V1 back-mutant L37P, His6- and Flag-tagged (designed binder, not shown: small tags and cut ends)", "chain": "B1 chain with L34P"}, "B6": {"name": "Cbx7.V1 back-mutant E38K, His6- and Flag-tagged (designed binder, not shown: small tags and cut ends)", "chain": "B1 chain with E35K"}, "B7": {"name": "Cbx7.V1 chromodomain (tags removed) (designed binder)", "chain": "B1 chain"}, "B8": {"name": "Cbx7.wt chromodomain (tags removed), O95931 4-75 (protein)", "chain": "B1 chain with D5E, D6Q, I7V, E30K, L34P, E35K"}, "B9": {"name": "Cbx7 Q9D chromodomain (tags removed) (designed binder)", "chain": "B1 chain with D5E, I7V, E30K, L34P, E35K"}, "B10": {"name": "Cbx7 K33E chromodomain (tags removed) (designed binder)", "chain": "B1 chain with D5E, D6Q, I7V, L34P, E35K"}, "B11": {"name": "Cbx7.VD chromodomain (tags removed) (designed binder)", "chain": "B1 chain with D5E, I7V, L34P, E35K"}, "B12": {"name": "Cbx2.VD chromodomain (tags removed) (designed binder)", "chain": "GEDVFAAECILSKRLRKGKLEYLVKWEGWSSKHNSWEPEENILDPRLLLAFQKKEHEKEVQNR"}, "B13": {"name": "Cbx8.VD chromodomain (tags removed) (designed binder)", "chain": "GEDVFAAEALLKRRIRKGRMEYLVKWEGWSQKYSTWEPEENILDARLLAAFEEREREMELYGP"}}, "note": "Substitutions are numbered along the chain they refer to. Names may count otherwise."}
{"biological_target": "H3K9me3 peptide", "assay": "BLI, biotinylated peptide on streptavidin tips, steady state", "units": {"Kd": "µM"}}
{"binder": "B1", "Kd": 4.5}
{"binder": "B2", "Kd": 5}
{"binder": "B3", "Kd": 3.5}
{"binder": "B4", "Kd": 10}
{"binder": "B5", "Kd": 3}
{"binder": "B6", "Kd": 2}
{"biological_target": "H3K9me3 peptide", "assay": "fluorescence polarization, FITC-peptide 0.5 nM", "units": {"Kd": "µM"}}
{"binder": "B7", "Kd": 7}
{"binder": "B8", "Kd": 30}
{"binder": "B9", "Kd": 10}
{"binder": "B10", "Kd": 20}
{"binder": "B11", "Kd": 8}
{"binder": "B12", "Kd": 5}
{"binder": "B13", "Kd": 20}
{"biological_target": "H3K9me3 peptide", "assay": "ITC, peptide titrated into the chromodomain, 25 C", "units": {"Kd": "µM"}}
{"binder": "B7", "Kd": 7}
